Test results from US20090252754A1, “Vaccines containing the hiv tat protein as an adjuvant for the enhancement of cytotoxic t-cell responses” (priority 2003, published 2009).
Like-named read-outs stand apart in the source and are kept apart here.

Tests used:
LMP2 = LMP2 expression in splenocytes of mice treated i.m. with Tat (Western blot); assay type: in vivo; details: Balb/c mice, 1 μg i.m., 3 consecutive treatments
Description: Equal amounts of proteins were loaded on a 12% SDS-PAGE gel and electroblotted onto Protran nitrocellulose membranes (Schleicher & Schuell, Keene, Hampshire, USA). The blots were probed with antibodies specific for α2, LMP2, LMP7, MECL1, and PA28α subunits (Affinity, Exeter, UK) and developed by enhanced chemiluminescence (ECL, Amersham Pharmacia Biotech, Uppsala, SW).
Animal use was according to national and institutional guidelines. Seven-to-eight week old female Balb/c mice (Nossan, Milan, Italy) were injected with native monomeric biologically active Tat protein (1 μg) resuspended in degassed sterile PBS. Control mice were injected with oxidised Tat (1 μg) or with PBS alone. Samples (100 μl) were given by intramuscular (i.m.) injections in the quadriceps muscles of the posterior legs. Each experimental group consisted of three mice, and the experiment was repeated twice. Mice were boosted at days 11 and 20 after the first injection. Seven days after the last injection, animals were anaesthetised intraperitoneally (i.p.) with 100 μl of isotonic solution containing 1 mg of Inoketan (Virbac, Milan, Italy), and 200 μg Rompun (Bayer, Milan, Italy) and sacrificed to collect spleens. Mononuclear cells from individual spleens were purified using cells strainers, resuspended in PBS containing 20 mM EDTA, and treated with a red blood cells lysis buffer for 4 minutes at room temperature. […]

HIV-1 LTR = details: in contrast to wild-type Tat, cited from earlier work
[1] = system: proteasome subunits (α2, LMP2, LMP7, MECL1) in Jurkat cells; assay: Western blot of proteasome subunits in Jurkat cells expressing or treated with Tat, Tat mutants or Tat peptides; assay type: cell-based, human; details: Jurkat cells expressing mutant
Method: Jurkat T cells expressing Tat or mutated Tat (referred to as Tat22, wherein a Cys at position 22 is mutated) have previously been described (1). Cells were cultured in a medium supplemented with 800 μg/ml neomycin (Sigma, St. Louise, […].).
Cells were lysed with glass beads as previously described (4). Supernatants were ultracentrifuged for 1 h at 100,000 g and loaded into an affinity column containing a matrix derivatised with the MCP21 mAb specific for the α2 subunit of the proteasome (Affinity, Exeter, UK). Proteasomes were eluted with 25 mM Tris-HCl pH 7.5 containing 2 M NaCl, and 0.5 ml fractions were collected. Homogeneity of the eluted material was confirmed by analysis of an aliquot by SDS 12% PAGE and Coomassie blue staining of the gel. Fractions containing proteasomes were combined and dialysed against 25 mM Tris-HCl pH 7.5. Protein concentration was determined using the BCA method (Pierce Chemical, Rockford, Ill.).
Equal amounts of proteins, or equal amounts of purified proteasomes, were loaded on a 12% SDS-PAGE and electro-blotted onto Protran nitrocellulose membranes (Schleicher & Schuell, Keene, Hampshire, USA). Blots were probed with Abs specific for α2, LMP2 LMP7, MECL1, and PA28α subunits (Affinity), and developed by enhanced chemi-luminescence (ECL, Amersham Pharmacia Biotech, Uppsala, SW).

B1: oxidised Tat: oxidised form of the HIV-1 Tat protein, used as control (protein, UniProt P04608 1-86, looked up)
Protein Tat: MEPVDPRLEPWKHPGSQPKTACTNCYCKKCCFHCQVCFITKALGISYGRKKRRQRRRAHQNSQTHQASLSKQPTSQPRGDPTGPKE
modifications: oxidised
notes: oxidised form of the HIV-1 Tat protein, used as control
LMP2 expression in splenocytes (LMP2): no effect

B2: Tat22: mutated HIV-1 Tat carrying glycine instead of cysteine 22 (SEQ ID NO 286) (protein)
chain: MEPVDPRLEPWKHPGSQPKTAGTNCYCKKCCFHCQVCFITKALGISYGRKKRRQRRRPPQGSQTHQVSLSKQPTSQSRGDPTGPKE
reactivation of latent infection (HIV-1 LTR): do not induce
transactivation of the HIV-1 LTR (HIV-1 LTR): no effect
reactivation of latent infection (HIV-1 LTR; listed as Tatcys22): does not induce
subunit composition of proteasomes [1]: modifies the subunit composition of proteasomes
